Experimental data taken from PMC12669584.

Biological target: HIV-1 BaL envelope glycoprotein (Env) trimer on AT-2 inactivated virions (HIV-1 (BaL))
Test: cryo-EM structure

## anti-coreceptor binding site (CoRBS) antibody 17b (full IgG)
  stoichiometry N (17b Abs per Env trimer): 3
